In patent publication US20110237779A1:
Numbering of substitutions follows the chain as printed. Numbers in names are those of the source.

B1: MHM24 library clone, CDR-L2 SGSTLES (Fab, V domains shown)
VH: EVQLVESGGGLVQPGGSLRLSCAASGYSFTGHWMNWVRQAPGKGLEWVGMIHPSDSETRLNQKFKDRFTISADTSKNTAYLQMNSLRAEDTAVYYCARGIYFYGTTYFDYWGQGTLVTVSS
VL: DIQMTQSPSSLSASVGDRVTITCRASKTISKYLAWYQQKPGKAPKLLIYSGSTLESGVPSRFSGSGSGTDFTLTISSLQPEDFATYYCQQHNEYPLTFGQGTKVEIK
B2: MHM24 direct hypervariable region graft on the acceptor human consensus framework (Fab displayed on phage) (Fab, V domains shown)
VH: B1 VH
VL: B1 VL with E55Q
B3: MHM24 library clone, CDR-L2 SGSTLES, VH S55I (Fab, V domains shown)
VH: B1 VH with S56I
VL: B1 VL
B4: MHM24 library clone, CDR-L2 SGSTLES, VH D101E (Fab, V domains shown)
VH: B1 VH with D109E
VL: B1 VL
B5: MHM24 library clone, CDR-L2 SGSIFQY, VH Y100dT (Fab, part only; not given: CH1, light constant and phage P3, part only)
light chain: DIQMTQSPSSLSASVGDRVTITCRASKTISKYLAWYQQKPGKAPKLLIYSGSIFQYGVPSRFSGSGSGTDFTLTISSLQPEDFATYYCQQHNEYPLTFGQGTKVEIKR
heavy chain (VH-CH1 fused to phage P3), part: B1 VH
B6: MHM24 library clone, CDR-L2 SGSALQS (Fab, V domains shown)
VH: B1 VH
VL: B1 VL with T53A, E55Q
B7: MHM24 library clone, CDR-L2 NARSLQS (Fab, V domains shown)
VH: B1 VH
VL: B1 VL with S50N, G51A, S52R, T53S, E55Q
B8: MHM24 library clone, CDR-L2 TGSTLES, VL S26T (Fab, V domains shown)
VH: B1 VH
VL: B1 VL with S26T, S50T
B9: MHM24 library clone, CDR-L2 SGRALQS (Fab, V domains shown)
VH: B1 VH
VL: B1 VL with S52R, T53A, E55Q
B10: MHM24 library clone, CDR-L2 SGRSLQR, VH L45P (Fab, V domains shown)
VH: B1 VH with L45P
VL: B1 VL with S52R, T53S, E55Q, S56R
B11: MHM24 library clone, CDR-L2 SGRSLQS, VH S28R (Fab, V domains shown)
VH: B1 VH with S28R
VL: B1 VL with S52R, T53S, E55Q
B12: MHM24 library clone, CDR-L2 SGRAMQR (Fab, V domains shown)
VH: B1 VH
VL: B1 VL with S52R, T53A, L54M, E55Q, S56R
B13: MHM24 library clone, CDR-L2 SGYSLHR, VL K27E, L96V (Fab, V domains shown)
VH: B1 VH
VL: B1 VL with K27E, S52Y, T53S, E55H, S56R, L96V
B14: MHM24 library clone, CDR-L2 SGRTLWP (Fab, V domains shown)
VH: B1 VH
VL: B1 VL with S52R, E55W, S56P
B15: MHM24 library clone, CDR-L2 SGGTLHR (Fab, V domains shown)
VH: B1 VH
VL: B1 VL with S52G, E55H, S56R

Assays:
[1] = biological target: human LFA-1 (human) (UniProt P20701); experiment: phage ELISA, solution competition: Fab-phage incubated with serially diluted LFA-1, unbound phage captured on LFA-1-coated wells; IC50 used as affinity estimate
[2] = biological target: human LFA-1 (human) (UniProt P20701); experiment: phage ELISA, Fab on phage, competition with antigen in solution; IC50 used as affinity estimate
[3] = biological target: human LFA-1 (human) (UniProt P20701); experiment: phage ELISA, Fab on phage, competition with antigen in solution

| Binder | IC50 [1] [nM] | IC50 [2] [nM] | IC50 [3] [nM] |
| --- | --- | --- | --- |
| B1 | 9 | – | – |
| B2 | 6 | 4 | 6 |
| B3 | 4 | – | – |
| B4 | 8 | – | – |
| B5 | 11 | – | – |
| B6 | 8 | – | – |
| B7 | 32 | – | – |
| B8 | 4 | – | – |
| B9 | 9 | – | – |
| B10 | 27 | – | – |
| B11 | 17 | – | – |
| B12 | 11 | – | – |
| B13 | 41 | – | – |
| B14 | 17 | – | – |
| B15 | 6 | – | – |
